For assay [1], the target named is T1, CLR-Nluc in complex with FLAG-RAMP1 (CGRP receptor) (UniProt Q16602 23-461; O60894 27-148).
T1 construct: calcitonin-like receptor (CLR), direct C-terminal in-frame fusion to NanoLuc, in pcDNA3.1(-); receptor activity modifying protein 1 (RAMP1), pcDNA3.1(+)FLAG-RAMP, described in Weston et al., 2016 and Harris et al., 2021; Harris et al., 2021; also called CLR-RAMP1; calcitonin-like receptor with receptor activity modifying protein 1; source: HEK293T, transfected, in living cells; not shown: …
T1 sequence (Q16602 23-461, chain 1 of 2): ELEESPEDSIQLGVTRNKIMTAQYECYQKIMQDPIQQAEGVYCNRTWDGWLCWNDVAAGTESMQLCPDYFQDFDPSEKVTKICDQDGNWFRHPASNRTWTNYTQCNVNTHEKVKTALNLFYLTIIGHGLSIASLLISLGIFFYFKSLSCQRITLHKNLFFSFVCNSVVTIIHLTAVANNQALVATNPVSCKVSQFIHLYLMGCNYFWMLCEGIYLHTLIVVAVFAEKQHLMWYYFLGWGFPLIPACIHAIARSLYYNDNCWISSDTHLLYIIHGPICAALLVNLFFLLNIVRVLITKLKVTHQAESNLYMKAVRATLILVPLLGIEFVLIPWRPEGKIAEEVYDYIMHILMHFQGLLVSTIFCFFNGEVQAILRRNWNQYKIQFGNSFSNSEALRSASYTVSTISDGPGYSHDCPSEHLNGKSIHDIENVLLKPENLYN
T1 sequence (O60894 27-148, chain 2 of 2): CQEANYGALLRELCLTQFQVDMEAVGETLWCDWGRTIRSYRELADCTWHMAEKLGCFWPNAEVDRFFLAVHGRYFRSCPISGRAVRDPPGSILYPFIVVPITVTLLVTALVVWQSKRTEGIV

Assay [2] concerns the target T2, CLR-Nluc in complex with FLAG-RAMP2 (adrenomedullin 1 receptor) (UniProt Q16602 23-461; O60895 43-175).
T2 construct: calcitonin-like receptor (CLR), direct C-terminal in-frame fusion to NanoLuc, in pcDNA3.1(-); receptor activity modifying protein 2 (RAMP2), pcDNA3.1(+)FLAG-RAMP, described in Weston et al., 2016 and Harris et al., 2021; Harris et al., 2021; also called CLR-RAMP2; AM1R; source: HEK293T, transfected, in living cells; not shown: NanoLuc, C-terminal, kept; FLAG, N-terminal, kept
As to the kind of experiment: FRET or BRET; living HEK293T cells transfected with CLR-Nluc (donor), FLAG-RAMP1/2/3 and β-arrestin1/2-YFP (acceptor); 5 μM coelenterazine-h; stimulated with AM, 1 μM to 10 pM; BRET ratio 460/530 nm read for at least 20 min. As to conditions: partners not purified. On the technique in general: BRET reads energy transfer from a luciferase to a nearby fluorophore.

T2 sequence (Q16602 23-461, chain 1 of 2): as the sequence (Q16602 23-461, chain 1 of 2) above
T2 sequence (O60895 43-175, chain 2 of 2): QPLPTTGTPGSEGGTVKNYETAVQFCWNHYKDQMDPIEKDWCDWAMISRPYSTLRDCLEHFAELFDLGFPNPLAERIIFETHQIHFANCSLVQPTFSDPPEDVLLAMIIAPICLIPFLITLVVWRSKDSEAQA

With “adrenomedullin 2 (from UniProt Q7Z4H4 101-148) (peptide)”, in assay [1], the cAMP accumulation, Emax, cells pretreated with DMSO (vehicle) (% of the response to 100 μM forskolin) stood at 79.8; the cAMP accumulation, Emax, cells pretreated with barbadin (% of the response to 100 μM forskolin) worked out at 47.2; the cAMP accumulation, pEC50, cells pretreated with DMSO (vehicle) is 6.34; the cAMP accumulation, pEC50, cells pretreated with barbadin came out at 4.93.

B1: β-arrestin1-YFP (natural protein, UniProt P49407 1-418, looked up)
chain: MGDKGTRVFKKASPNGKLTVYLGKRDFVDHIDLVDPVDGVVLVDPEYLKERRVYVTLTCAFRYGREDLDVLGLTFRKDLFVANVQSFPPAPEDKKPLTRLQERLIKKLGEHAYPFTFEIPPNLPCSVTLQPGPEDTGKACGVDYEVKAFCAENLEEKIHKRNSVRLVIRKVQYAPERPGPQPTAETTRQFLMSDKPLHLEASLDKEIYYHGEPISVNVHVTNNTNKTVKKIKISVRQYADICLFNTAQYKCPVAMEEADDTVAPSSTFCKVYTLTPFLANNREKRGLALDGKLKHEDTNLASSTLLREGANREILGIIVSYKVKVKLVVSRGGLLGDLASSDVAVELPFTLMHPKPKEEPPHREVPENETPVDTNLIELDTNDDDIVFEDFARQRLKGMKDDKEEEEDGTGSPQLNNR
notes: β-arrestin1 with an in-frame C-terminal YFP (Mackie et al., 2019); source: HEK293T, transfected, in living cells; not shown: YFP, C-terminal, kept
Take B1: the “pEC50 of AM for recruitment (BRET)” value in assay [2] turned out to be 7.57 ± 0.17.

For the origin of these results see article PMC9001978, “Determining the Effects of Differential Expression of GRKs and β-arrestins on CLR-RAMP Agonist Bias” (Frontiers in Physiology, 2022).
